# Tests used:
# [1] = Denaturation of BCA charge ladders in 3 mM SDS (dialysis cassette) followed by capillary electrophoresis, with transition-state model fit; type: physicochemical
# Method: Denaturation experiments were performed as follows. A charge ladder of BCA (BCA-Acn or BCA-Hexn, 1 mL of 100 micromolar total protein in Tris-Gly buffer) was placed in a dialysis cassette (MW cutoff of 10 kDa). The dialysis cassette was placed in a 1 L bath of 3 mM SDS in Tris-Gly buffer at room temperature. The buffer was changed every 24 h. At regular intervals of time (approximately every half-hour), 100 microliters of the protein solution was removed from the dialysis cassette; ˜7 microliters of that aliquot was diluted 10-fold and the absorbance of the diluted sample at 280 nm (ε280,BcA=57,000 M^−1 cm^−1, the absorption cross section can be assumed to be is unchanged by acylation) was measured to determine the total protein concentration. The aliquot was diluted because the absorbance of the 100 micromolar solution was too high to be read accurately by the ultraviolet spectrometer. This diluted aliquot was discarded. The remainder of the solution was then run on CE. The protein solution, except for the portion diluted for ultraviolet measurement, was returned to the dialysis cassette; the aliquot was outside of the dialysis cassette for ˜5 min.
# Capillary electrophoresis experiments were carried out in a Beckman (Fullerton, Calif.) PACE-MDQ system, using a capillary of inner diameter of 50 micrometers of total length of 110.2 cm, 100 cm to the detector. Tris-Gly in D2O was used as the running buffer, and the applied voltage was 30 kV. D2O was used in place of H2O for the electrophoresis buffer because the viscosity of D2O is higher than that of H2O and the higher viscosity minimizes diffusion. Samples were injected using pressure (20 psi) for 30 s. Each sample contained 0.65 mM dimethylformamide as an electrically neutral marker for electroosmotic flow.
# The CMC of SDS in the Tris-Gly buffer used in this example was 4.3 mM. 3 mM SDS was chosen for these experiments because this concentration of SDS denatured BCA in an interval of time that was convenient for experimental work using CE. In addition, this concentration of SDS was close to the concentration often used in SDS-PAGE (0.1% or 3.5 mM). 1 mL of a solution of ˜100 micromolar of a charge ladder of BCA, dissolved in Tris-Gly buffer, was placed into a dialysis cassette (molecular weight cutoff of 10 kDa) and the cassette placed in 1 L of Tris-Gly buffer containing 3 mM SDS. The bath was kept at room temperature (˜22° C.) for the duration of the experiment.
# At regular intervals of time (approximately every half hour), 100-microliter aliquots of the solutions containing the charge ladder of BCA were removed from the cassette in a bath of 3 mM SDS in Tris-Gly buffer, the total protein concentration in the aliquot was measured using absorbance at 280 nm, and a portion (˜10 nL) of the aliquot injected onto the CE. The unused portions of the aliquots were then returned to the cassette.
# Residence time in the detection volume was determined as follows. […] If two proteins with the same absorptivity were present in a sample in equal concentrations, the protein of lower velocity would have a larger measured peak area than the protein of higher velocity. To correct for this experimental bias, the area of each peak was multiplied-by the velocity of the protein (Acorr=Ameasured×LD/tD), where LD is the length of the capillary from the end (where injection occurs) to the detector (100 cm in all of these experiments) and tD is the time it takes for the rung to reach the detector.
# Initial differences in concentrations of each rung were as follows. The areas of each of the rungs in the charge ladder were not all equal before denaturation. To measure the fraction of each rung that has denatured at each time, the velocity-corrected area of each rung in the sample was divided by the velocity-corrected area of that rung in the charge ladder run in the absence of SDS.
# A comparison of the rates of denaturation follows. […]
# [2] = Screening of additives in denaturation/renaturation with SDS; type: physicochemical
# Method: Additives in de-/renaturation included the following. The effects of the following additives on denaturation and renaturation of BCA and BCA-Ac18 were screened: poly(ethelyneglycol) (PEG, MW=2000), 0.1 mM, 1 mM; poly(vinylpyrrolidone), MW=10 000, 1%, 10% w/v; 3-(3-cholamidopropyl)dimethylammoniopropane sulfonate (CHAPS), 1 mM; octanol, 1 mM; tetrabutylammonium thiocyanate, 100 mM; sodium thiocyanate, 100 mM, 1 M; sodium sulfate, 10 mM; betaine, 1 M; dimethyl sulfoxide (DMSO), 1%, 10% v/v; N-methylpyrrolidone, 1%, 10% v/v. The screening was performed in a 96-well plate format, using a SpectraMax Gemini XS spectrometer (Molecular Devices), with a protein concentration of 100 nM, a DNSA concentration of 10 micromolar (present in the denaturation/renaturation buffers), and variable concentrations of SDS.
# In some experiments, various additives were used to prevent aggregation of BCA and BCA-Ac18. These additives were commonly used to prevent aggregation of carbonic anhydrases and other proteins. The additives included polymers (PEG), other surfactants (CHAPS), “salting-in” Hofmeister salts (tetrabutylammonium thiocyanate and sodium thiocyanate), osmolytes (betaine), and organic solvents (dimethyl sulfoxide and N-methylpyrrolidone). […] For example, in 10% DMSO, it was observed that refolding of BCA up to 1.2 mM SDS (vs. 0.7 mM SDS without a cosolvent), but unfolding up to 2.5 mM SDS was not observed.
# [3] = from solutions of GuHCl; cited from earlier work
substance,measurement,setting,value
bovine carbonic anhydrase II [BCA],ΔG‡ of denaturation (a coefficient),"[1]; 3 mM SDS, room temperature, assumes νκTST=10^6 s^−1",14 ± 1 kcal/mol
same,radius of the transition state RTS,"[1]; model, assuming a radius of BCA of 2 nm",2.1 nm
same,highest SDS concentration at which refolding was observed,[2]; 1 mM CHAPS,up to 1.8 mM
same,SDS concentration needed for unfolding,"[2]; 1 mM CHAPS, unfolding did not occur below this concentration",≥ 2.5 mM
same,highest SDS concentration at which refolding was observed,[2]; 10% DMSO,up to 1.2 mM
same,SDS concentration needed for unfolding,"[2]; 10% DMSO, unfolding up to this concentration not observed",> 2.5 mM
same,highest SDS concentration at which refolding was observed,[2]; without a cosolvent,≤ 0.7 mM
same,time constant of rate-limiting step in folding,[3],~10 min

# From patent US20080113421A1, “Stabilizing proteins against denaturation and inactivation by charged detergents using chemical modifications, including modifications that increase net charge” (President and Fellows of Harvard College, priority 2006, published 2008)
